According to patent publication US7709240B2, “AMP deaminase originating streptomyces and utilization thereof” (Amano Enzyme Inc., priority 2004, dated 2010):
Several values for one entry are separate records, joined by “and”; a condition that tells them apart may be missing. Equal entries are not always repeated.

What was measured:
[1] = Feasibility test 1: nuclease and deaminase treatment of yeast lysate carried out independently; settings: after nuclease treatment; deaminase at 50° C., pH 6, 5 hours
Protocol: In test 1, similar to the current production method, treatment with nuclease and treatment with deaminase were carried out independently. Specifically, the treatment was carried out by the following procedure and the IMP conversion rate was calculated. Firstly, nuclease “AMANO” G (Amano Enzyme Inc., 0.1% w/w yeast solid) was added to yeast lysate (YL-15, 0.2%) and they were reacted with each other under the conditions at a temperature of 70° C. and pH 5 for 3 hours. Then, “Deamizyme (50,000 u/mg product) (trade name of Amano Enzyme Inc., 0.01 to 0.04% w/w yeast solid)” that is an AMP deaminase agent derived from the test enzyme (Aspergillus melleus), or a crude enzyme solution prepared from Streptomyces murinus was added and reacted with each other under the conditions at a temperature of 50° C. and pH 6 for 5 hours. Then, the reacted product was heat treated, and then subjected to HPLC analysis. Note here that added amount of AMP deaminase derived from Streptomyces murinus was set so that the activity value thereof became the same as that of “Deamizyme (50,000 u/mg product)” (trade name, Amano Enzyme Inc.)

[2] = Thermostability of purified enzyme: residual activity after 30 minutes at each temperature; format: physicochemical
Protocol: (§1) By using the decrease of OD265 at the time of reaction as an index, the enzyme activity was measured. To 1.5 ml of solution obtained by mixing 0.017M 5′ AMP-2Na and 1/15M phosphate buffer solution (pH 5.6) at the ratio of 1:2, 0.5 ml of sample solution was added so as to obtain a reaction solution, which was reacted at 37° C. for 15 minutes. Then, 2% perchloric acid solution was added so as to stop the reaction and 100 μl of the solution was taken out. Water was added to the solution so that the total amount was 5 ml. Then, OD265 was measured. The value similarly measured at reaction time of 0 minute was defined as a blank. Under the above-mentioned conditions, a case where an absorbance difference is reduced by 0.001 during 60 minutes was defined as one unit.
Subsequently, the thermostability of the enzyme was examined by the following procedure. An enzyme solution (0.15 ml) containing 2.8 μg protein (total amount) was adjusted to pH 5.6 by using acetate buffer (pH 5.0), and then treated for 30 minutes at each temperature (40° C., 50° C., 60° C., 65° C., 70° C., and 75° C.). Then, the residual activity (percent with respect to the enzyme activity in the case where the treatment was not carried out) was measured. At 65° C. or less, about 90% or more of activity is maintained. Furthermore, also when the treatment is carried out at 70° C., about 55% of the activity is maintained.

[3] = IMP conversion reaction (HPLC); format: biochemical; settings: 1.1% AMP solution, pH 7.0, 50° C., 4 hours
Protocol: IMP conversion rate by HPLC of AMP deaminase produced by Aspergillus melleus and Streptomyces murinus was examined. Specifically, by using 1/15M phosphate buffer solution (pH 7.0), 1.1% AMP solution was prepared. To 5 ml of 1.1% AMP solution, 0.5 ml of enzyme solution was added and reacted at 50° C. for 4 hours. Thereafter, heat treatment at 100° C. was carried out for 10 minutes, filter filtration (0.45 μm) was carried out, and HPLC analysis was carried out.

[4] = Enzyme kinetics (Km, Vmax); format: biochemical
Substrate specificity [5] = format: biochemical
[6] = Thermostability of crude enzyme solutions / culture supernatant: residual AMP deaminase activity after 30 minutes; format: physicochemical; settings: enzyme solution or culture supernatant treated 30 minutes at 30-75° C., pH 5.6
Protocol: as §1, with “unit. […]” for “unit.”
Then, in the genus Streptomyces in the stored strains of Amano Enzyme Inc., screening of AMP deaminase producing strain was carried out. […] Furthermore, the residual activity was measured when the activity obtained when treatment was not carried out was defined as 100%. […]
The thermostability of AMP deaminase produced by transformant (SAD-1) was measured. Culture supernatant of SAD-1 prepared by the above-mentioned method was treated at a predetermined temperature, and the residual AMP deaminase activity was measured (pH 5.6). […]

[7] = Relation between reaction temperature and activity of purified enzyme; format: biochemical; settings: reaction temperature 75° C.; activity at 65° C. = 100%
Protocol: as §1
The relation between the reaction temperature and activity of the obtained purified enzyme was examined. […] As is apparent from the graph of FIG. 7 (a), high activity is observed in the wide range from 40° C. to 70° C. Furthermore, even in the case where the reaction temperature is 75° C., about 50% activity is found. Thus, it is shown that the enzyme acts favorably under the wide range of temperatures.

Substrate specificity [8] = format: biochemical; remark: listed apart in the source
[9] = Chromatofocusing (isoelectric point); format: physicochemical; settings: 8.12 = main fraction; at least two isozymes
Protocol: In order to obtain an isoelectric point of AMP deaminase derived from Streptomyces murinus obtained by the above-mentioned method, chromatofocusing was carried out. By using MonoP column (Pharmacia), a starting buffer (Start Buffer) and an elution buffer (Poly buffer 96) were adjusted to pH 4.0 with 0.075M Tris acetate buffer (pH9.3) and with hydrochloric acid, respectively. The final amount was made to 100 ml. Furthermore, Pre-gradient with 3 ml, gradient elution with 30 ml and elution with 30 ml were carried out. From the results, it was thought that at least two isozymes were present (pI 8.12, 7.02), but the isoelectric point of main fraction was 8.12. Various properties, including the isoelectric point obtained from the above-mentioned results, of AMP deaminase derived from Streptomyces murinus, are shown in FIG. 11.

Substrate specificity [10] = format: biochemical; remark: listed apart in the source

B1: AMP deaminase derived from Streptomyces murinus: thermostable AMP deaminase enzyme produced by Streptomyces murinus IFO14802; amino acid sequence SEQ ID NO: 1 (protein, listed as Streptomyces murinus)
chain: APPPRQATAAEARTDAYLRSVKDRPAALRAFFRQLPKGGDLHNHLSGAVNTDYLIELAAEDGLCIDATMTAVPSPCGPGTRPAADARTDRAFHDAIVRAWSMQDFPPDENGHDHFFDTFGKFGEVTWRHRGKLLAQVADTVVANNQSYLETMVTPASDGAKQLADQVGWDADLTALHRKLAAGGKLDKLVADARKEADDGDAEFRATEHCGTAKARPACGLTVRWISQASRGSSPVRVFTQLDLGMRLAEADSRFVAVNLVQPEDWDSSLENYSLQMRMVGYLRTVYPKAHVTLHAGELWPGLVKPEALKFHIAEAVDIAHTQRVGHGVDLVHEDNWQRTARTMAARQIAVEVPFSSNAQILGVKGAEHPFTTYRRYGVPVVLATDDPGVSRIDISHEYQYAAATYGLGYPELKDLARASLQYAFLPGASLWQGNPTAQGYHPVAACRAERPGQPVHSAACRRLLDGSARARLEWRQEAAFAAFERAHARG
- IMP conversion rate compared with AMP deaminase derived from Aspergillus melleus [1]: equivalent
- temperature stability (stable at) ([2]; acetate buffer solution (pH 5.6)): ≤ 65 °C
- residual activity ([2]; treated at 70° C. for 30 minutes, pH 5.6 acetate buffer, untreated = 100%): about 55%
- IMP conversion rate compared with AMP deaminase produced by Aspergillus melleus [3]: the same level
- ratio of the side product (hypoxanthine) compared with Aspergillus melleus [3]: smaller
- Km [4]: 950 µM
- Vmax [4]: 3.5e+07 µmol/min/mg
- action on substrate 5′-UMP (Substrate specificity [5]): did not act on
- thermostability (residual AMP deaminase activity) [6]: extremely excellent
- relative activity [7]: about 50%
- action on substrate 5′-GMP (Substrate specificity [8]): did not act on
- isoelectric point (pI) [9]: 8.12 and 7.02
- action on substrate 5′-CMP (Substrate specificity [10]): did not act on
